Assay results from patent US20190225703A1 (INNATE PHARMA, published 2019).

T1: human CD73 mutant 2 (human, UniProt P21589 27-549)
T1 construct: Transfected in HEK-293T cells; The cell prints A1071, read as A107I
T1 chain: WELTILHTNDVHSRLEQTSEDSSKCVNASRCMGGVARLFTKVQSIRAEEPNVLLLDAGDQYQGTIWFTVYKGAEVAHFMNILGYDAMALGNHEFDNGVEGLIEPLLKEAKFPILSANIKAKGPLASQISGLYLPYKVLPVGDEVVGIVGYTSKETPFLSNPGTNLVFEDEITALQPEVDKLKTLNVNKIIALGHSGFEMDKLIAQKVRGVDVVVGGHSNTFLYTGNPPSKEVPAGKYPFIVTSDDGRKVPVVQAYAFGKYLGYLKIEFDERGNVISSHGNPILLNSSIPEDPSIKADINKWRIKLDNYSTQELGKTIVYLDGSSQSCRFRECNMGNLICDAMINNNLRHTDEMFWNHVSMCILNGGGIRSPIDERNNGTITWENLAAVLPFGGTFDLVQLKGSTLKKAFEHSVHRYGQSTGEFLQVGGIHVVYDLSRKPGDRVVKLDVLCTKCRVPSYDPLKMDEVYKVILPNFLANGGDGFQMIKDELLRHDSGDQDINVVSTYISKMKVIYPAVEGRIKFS

T2: human CD73 (ecto-5'-nucleotidase) expressed at the cell surface (human, UniProt P21589 27-549)
T2 construct: Used for huCD73-expressing recombinant cell lines, MDA-MB-231 cells (endogenous CD73), HEK-293T cells with wild type CD73, and primary T and B cells; also called huCD73; wild type CD73
T2 sequence: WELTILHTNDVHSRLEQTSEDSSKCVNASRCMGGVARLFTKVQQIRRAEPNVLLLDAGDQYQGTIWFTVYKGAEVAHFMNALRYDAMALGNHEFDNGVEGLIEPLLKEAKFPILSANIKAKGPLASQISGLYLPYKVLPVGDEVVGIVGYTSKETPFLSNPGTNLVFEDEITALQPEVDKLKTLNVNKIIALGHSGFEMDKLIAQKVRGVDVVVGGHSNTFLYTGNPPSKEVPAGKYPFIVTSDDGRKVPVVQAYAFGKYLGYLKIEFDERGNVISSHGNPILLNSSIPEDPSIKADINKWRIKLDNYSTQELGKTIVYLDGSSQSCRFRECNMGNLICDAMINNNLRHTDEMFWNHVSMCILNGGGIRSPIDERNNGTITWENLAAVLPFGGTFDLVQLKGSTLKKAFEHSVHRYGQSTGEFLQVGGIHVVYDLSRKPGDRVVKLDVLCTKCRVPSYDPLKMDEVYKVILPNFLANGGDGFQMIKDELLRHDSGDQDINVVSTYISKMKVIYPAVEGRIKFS

T3: recombinant human CD73-His extracellular domain protein, soluble dimer (human, UniProt P21589 27-547)
T3 construct: also called huCD73 protein; human recombinant soluble dimeric CD73
T3 sequence: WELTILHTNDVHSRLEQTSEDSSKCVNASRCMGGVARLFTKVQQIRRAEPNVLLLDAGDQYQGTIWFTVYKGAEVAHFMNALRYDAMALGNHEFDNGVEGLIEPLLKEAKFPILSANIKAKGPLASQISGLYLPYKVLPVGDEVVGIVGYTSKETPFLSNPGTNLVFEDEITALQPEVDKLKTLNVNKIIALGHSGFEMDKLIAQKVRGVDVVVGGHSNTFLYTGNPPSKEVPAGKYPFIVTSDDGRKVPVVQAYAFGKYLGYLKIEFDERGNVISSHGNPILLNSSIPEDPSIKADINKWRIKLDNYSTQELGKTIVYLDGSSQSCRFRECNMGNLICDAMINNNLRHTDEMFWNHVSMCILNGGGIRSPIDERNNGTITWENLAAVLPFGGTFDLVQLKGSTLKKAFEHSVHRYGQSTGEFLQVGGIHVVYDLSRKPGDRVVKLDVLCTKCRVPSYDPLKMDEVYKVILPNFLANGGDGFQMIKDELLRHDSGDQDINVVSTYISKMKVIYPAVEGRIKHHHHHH

T4: mouse CD73 expressed at the cell surface (mouse, UniProt Q61503 29-551)
T4 construct: whole, on cells; Recombinant cell line expressing mouse CD73; also called moCD73
T4 sequence (looked up): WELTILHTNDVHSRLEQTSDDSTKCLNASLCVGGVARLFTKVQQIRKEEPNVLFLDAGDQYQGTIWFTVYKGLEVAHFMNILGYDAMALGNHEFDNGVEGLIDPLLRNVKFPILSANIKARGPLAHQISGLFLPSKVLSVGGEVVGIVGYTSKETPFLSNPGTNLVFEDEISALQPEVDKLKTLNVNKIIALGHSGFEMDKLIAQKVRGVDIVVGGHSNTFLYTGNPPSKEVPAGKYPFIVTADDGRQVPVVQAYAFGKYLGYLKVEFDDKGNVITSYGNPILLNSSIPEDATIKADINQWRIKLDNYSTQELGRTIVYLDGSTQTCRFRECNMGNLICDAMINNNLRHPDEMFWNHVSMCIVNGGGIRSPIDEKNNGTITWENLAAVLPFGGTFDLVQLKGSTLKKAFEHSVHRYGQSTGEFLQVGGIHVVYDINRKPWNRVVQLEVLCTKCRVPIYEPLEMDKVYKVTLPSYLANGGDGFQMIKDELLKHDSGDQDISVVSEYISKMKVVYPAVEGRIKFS

T5: human CD73 mutant 5 (human, UniProt P21589 27-549)
T5 construct: Transfected in HEK-293T cells
T5 chain: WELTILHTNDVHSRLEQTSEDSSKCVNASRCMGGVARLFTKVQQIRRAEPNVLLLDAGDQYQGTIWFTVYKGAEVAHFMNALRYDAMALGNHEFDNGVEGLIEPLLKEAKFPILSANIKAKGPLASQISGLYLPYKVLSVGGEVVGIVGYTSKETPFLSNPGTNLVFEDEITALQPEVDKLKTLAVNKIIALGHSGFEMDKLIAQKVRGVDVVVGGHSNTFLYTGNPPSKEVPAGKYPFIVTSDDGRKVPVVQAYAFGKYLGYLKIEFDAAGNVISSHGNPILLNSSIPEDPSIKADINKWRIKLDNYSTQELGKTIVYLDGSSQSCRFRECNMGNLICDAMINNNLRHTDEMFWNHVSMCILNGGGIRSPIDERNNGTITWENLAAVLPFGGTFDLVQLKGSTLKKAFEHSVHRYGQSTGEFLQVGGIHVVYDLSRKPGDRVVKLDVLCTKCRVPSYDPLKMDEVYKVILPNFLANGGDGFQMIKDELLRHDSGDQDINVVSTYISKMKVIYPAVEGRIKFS

T6: human CD73 mutant 3 (human, UniProt P21589 27-549)
T6 construct: Transfected in HEK-293T cells
T6 chain: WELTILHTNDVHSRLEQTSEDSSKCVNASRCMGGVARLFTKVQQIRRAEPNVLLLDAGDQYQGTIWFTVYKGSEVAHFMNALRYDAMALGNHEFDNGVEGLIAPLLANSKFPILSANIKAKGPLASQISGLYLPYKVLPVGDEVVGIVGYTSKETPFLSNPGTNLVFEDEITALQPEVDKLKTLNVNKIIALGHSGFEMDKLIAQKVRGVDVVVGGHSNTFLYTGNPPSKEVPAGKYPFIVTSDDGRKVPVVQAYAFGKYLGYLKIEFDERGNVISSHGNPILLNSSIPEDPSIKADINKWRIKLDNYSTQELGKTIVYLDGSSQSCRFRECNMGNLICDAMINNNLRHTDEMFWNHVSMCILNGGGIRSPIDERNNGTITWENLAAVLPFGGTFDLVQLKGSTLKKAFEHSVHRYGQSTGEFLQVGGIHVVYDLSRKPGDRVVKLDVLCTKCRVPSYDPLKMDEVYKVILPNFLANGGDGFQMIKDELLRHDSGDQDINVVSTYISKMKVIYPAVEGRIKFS

T7: human CD73 mutant 4 (human, UniProt P21589 27-549)
T7 construct: Transfected in HEK-293T cells
T7 chain: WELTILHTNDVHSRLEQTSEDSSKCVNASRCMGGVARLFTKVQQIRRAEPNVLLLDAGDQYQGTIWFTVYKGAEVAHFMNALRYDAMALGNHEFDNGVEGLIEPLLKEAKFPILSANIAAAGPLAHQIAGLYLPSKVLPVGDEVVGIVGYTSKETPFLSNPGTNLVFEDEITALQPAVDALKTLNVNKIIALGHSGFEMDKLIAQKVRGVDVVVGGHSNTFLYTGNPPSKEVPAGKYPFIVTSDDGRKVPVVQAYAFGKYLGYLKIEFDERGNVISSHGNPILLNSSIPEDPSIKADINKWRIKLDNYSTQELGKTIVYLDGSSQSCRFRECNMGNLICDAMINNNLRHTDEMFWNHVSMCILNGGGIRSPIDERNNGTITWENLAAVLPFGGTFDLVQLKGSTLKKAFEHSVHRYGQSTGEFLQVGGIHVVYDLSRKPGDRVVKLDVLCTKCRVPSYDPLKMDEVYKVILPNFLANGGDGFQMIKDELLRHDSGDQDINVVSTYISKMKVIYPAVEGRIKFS


Experiments:
human CD73 mutant 2 = molecular target: T1, human CD73 mutant 2; test: flow cytometry titration on HEK-293T cells transfected with CD73 mutant 2
Protocol: (§1) Anti-CD73 antibodies are tested for their binding to each mutant by flow cytometry. A first experiment is performed to determine antibodies that lose their binding to one or several mutants at one concentration. To confirm a loss of binding, titration of antibodies is done on antibodies for which binding seemed to be affected by the CD73 mutations (1-0.1-0.01-0.001 μg/ml).

[1] = molecular target: T8, cynomolgus CD73 expressed at the cell surface (cynomolgus); test: flow cytometry titration on cynomolgus-CD73-expressing cell line
T8 construct: whole, on cells; Recombinant cell line expressing cynomolgus CD73; also called cynoCD73
Protocol: (§2) 10⁵ cells resuspended in PBS/0.2% BSA/0.02% NaN3 (named “staining buffer”) are distributed into round bottom 96W-microplates. Dose-range of anti-CD73 antibodies was added to the plates and cells are incubated for 45 min at 4° C. Cells were washed three times in staining buffer by spinning plates at 400 g for 3 min at 4° C. PE-coupled goat anti-mouse or goat anti-human IgG Fc fragment secondary antibodies (Beckman Coulter) diluted in staining buffer were added to the cells and plates are incubated for 30 additional minutes at 4° C. Cells were washed three times as described above and analyzed on an Accury C6 flow cytometer equipped with an HTFC plate reader.
(§3) Median of fluorescence vs. antibodies concentration was plotted on graphs and EC50 is calculated using GraphPad Prism program.

[2] = molecular target: T2, human CD73 (ecto-5'-nucleotidase) …; test: flow cytometry titration on HEK-293T cells transfected with wild type human CD73
Protocol: as §1

[3] = molecular target: T3, recombinant human CD73-His …; test: SPR (Biacore T100, 25 °C), antibody captured on Protein-A, soluble dimeric CD73 injected 1.23 to 300 nM, 1:1 kinetic model, bivalent affinity
Protocol: SPR measurements were performed on a Biacore T100 apparatus (Biacore GE Healthcare) at 25° C. In all Biacore experiments HBS-EP+(Biacore GE Healthcare) and NaOH 10 mM served as running buffer and regeneration buffer respectively. Sensorgrams were analyzed with Biacore T100 Evaluation software. Protein-A was purchase from (GE Healthcare). Human soluble dimeric CD73 proteins were cloned, produced and purified at Innate Pharma.
Protein-A proteins were immobilized covalently to carboxyl groups in the dextran layer on a Sensor Chip CMS. The chip surface was activated with EDC/NHS (N-ethyl-N′-(3-dimethylaminopropyl) carbodiimide hydrochloride and N-hydroxysuccinimide (Biacore GE Healthcare). Protein-A was diluted to 10 μg/ml in coupling buffer (10 mM acetate, pH 5.6) and injected until the appropriate immobilization level was reached (i.e. 2000 RU). Deactivation of the remaining activated groups was performed using 100 mM ethanolamine pH 8 (Biacore GE Healthcare).
Affinity study was carried out according to a standard Capture-Kinetic protocol recommended by the manufacturer (Biacore GE Healthcare kinetic wizard). Serial dilutions of human recombinant soluble dimeric CD73 proteins, ranging from 1.23 to 300 nM were sequentially injected over the captured anti-CD73 antibodies and allowed to dissociate for 10 min before regeneration. […]

[4] = molecular target: T2, human CD73 (ecto-5'-nucleotidase) …; test: flow cytometry titration on human-CD73-expressing cell line
Protocol: as §2, §3

[5] = molecular target: T2, human CD73 (ecto-5'-nucleotidase) …; test: flow cytometry titration on MDA-MB-231 cells, endogenous CD73
Protocol: as §2, §3

[6] = molecular target: T4, mouse CD73 expressed at the cell surface; test: flow cytometry titration on a cell line expressing mouse CD73
Protocol: as §2, §3

human CD73 mutant 5 = molecular target: T5, human CD73 mutant 5; test: flow cytometry titration on HEK-293T cells transfected with CD73 mutant 5
human CD73 mutant 3 = molecular target: T6, human CD73 mutant 3; test: flow cytometry titration on HEK-293T cells transfected with CD73 mutant 3
human CD73 mutant 4 = molecular target: T7, human CD73 mutant 4; test: flow cytometry titration on HEK-293T cells transfected with CD73 mutant 4
Protocol: as §1

| Binder | EC50 (read off the curve) (human CD73 mutant 2) [µg/mL] | EC50 [1] [µg/mL] | EC50 (read off the curve) [2] [µg/mL] | Kd [3] [pM] | EC50 [4] [µg/mL] | EC50 [5] [µg/mL] | binding result [6] | EC50 (read off the curve) (human CD73 mutant 5) [µg/mL] | EC50 (read off the curve) (human CD73 mutant 3) [µg/mL] | EC50 (read off the curve) (human CD73 mutant 4) [µg/mL] | fold higher concentration (EC50) than 7H10 [4] [fold] |
| --- | --- | --- | --- | --- | --- | --- | --- | --- | --- | --- | --- |
| antibody 12F9 (antibody, human IgG1, V domains shown) VH: QVQLQQSGPELVKPGASVRISCKASGYTFTNYYIHWVKQRPGQGLEWIGWIYPGNVNTKYNEKFKGKATLTADKSSNTAYMQLSSLTSEDSAVYFCAREGGYDRYALDYWGQGTSVTVSS VL: QIVLTQSPALMSASPGEKVTMTCSASSSVSYMYWYQQKPRSSPKPWIYLTSNLASGVPARFSGSGSGTSYSLTISSMEAEDAATYYCQQWSSNPLTFGAGTKLELK | ~0.2 | 0.527 | ~0.2 | 938 | 0.137 | 0.036 | no binding (tested: 10 µg/ml) |  |  |  |  |
| antibody AD2 (Biolegend Corp, product ref. 344004) (antibody, V domains shown) VH: EVQLQQSGAELVKPGASVKLSCTASGFNIKDTYIHWVKQRPEQGLEWIGRIDPATGNTEYDPKFQGKATITADTSSNTAYLHLSSLTSEDTAVYYCARGYYGSSYPPWFAYWGQGTLVTVS VL: DIVMTQSHKFMSTSVGDRVSITCKASQDVGSAVAWYQQKPGQSPKLLIYWASTRHTGVPDRFTGSGSGTDFTLTISNVQSEDLADYFCQQYSSYPLTFGAGTKLELK |  |  | ~0.2 |  | 0.743 | 0.431 |  | ~0.07 | ~0.1 | ~0.06 | ~4 |
